# Paper PMC3106293
# B1: hSULT1A3 (Homo sapiens) (protein)
# chain: MELIQDTSRPPLEYVKGVPLIKYFAEALGPLQSFQARPDDLLINTYPKSGTTWVSQILDMIYQGGDLEKCNRAPIYVRVPFLEVNDPGEPSGLETLKDTPPPRLIKSHLPLALLPQTLLDQKVKVVYVARNPKDVAVSYYHFHRMEKAHPEPGTWDSFLEKFMAGEVSYGSWYQHVQEWWELSRTHPVLYLFYEDMKENPKREIQKILEFVGRSLPEETMDFMVQHTSFKEMKKNPMTNYTTVPQELMDHSISPFMRKGMAGDWKTTFTVAQNERFDADYAEKMAGCSLSFRSEL
# B2: hSULT1A1 (Homo sapiens) (protein)
# chain: MELIQDTSRPPLEYVKGVPLIKYFAEALGPLQSFQARPDDLLISTYPKSGTTWVSQILDMIYQGGDLEKCHRAPIFMRVPFLEFKAPGIPSGMETLKDTPAPRLLKTHLPLALLPQTLLDQKVKVVYVARNAKDVAVSYYHFYHMAKVHPEPGTWDSFLEKFMVGEVSYGSWYQHVQEWWELSRTHPVLYLFYEDMKENPKREIQKILEFVGRSLPEETVDFVVQHTSFKEMKKNPMTNYTTVPQEFMDHSISPFMRKGMAGDWKTTFTVAQNERFDADYAEKMAGCSLSFRSEL
# What was measured:
# Settings in all cases: other: flavonoid as substrate; substrate inhibition equation (2); 37.0 °C
# [1] = substrate: COc1ccc([C@@H]2CC(=O)c3c(O)cc(O)cc3O2)cc1O; experiment: not read
# [2] = substrate: O=C1C[C@@H](c2ccc(O)c(O)c2)Oc2cc(O)cc(O)c21; experiment: not read
# [3] = substrate: Oc1cc(O)c2c(c1)O[C@H](c1ccc(O)c(O)c1)[C@H](O)C2; experiment: not read
# [4] = substrate: O=C1C[C@@H](c2ccc(O)c(O)c2)Oc2cc(O)cc(O)c21; experiment: Sulfation of flavonoids by recombinant hSULT1A1; type: in vitro ADME, human
# [5] = substrate: Oc1cc(O)c2c(c1)O[C@H](c1ccc(O)c(O)c1)[C@H](O)C2; experiment: Sulfation of flavonoids by recombinant hSULT1A1; type: in vitro ADME, human
Protein,Km [1],Km [2],Vmax [2],Vmax/Km [2],Km [3],Vmax [3],Vmax/Km [3],Vmax [1],Vmax/Km [1],Km [4],Vmax [4],Vmax/Km [4],Km [5],Vmax [5],Vmax/Km [5]
B1,179 ± 3.7 µM,193 ± 3.3 µM,0.269 µmol/min/mg,1390 µL/min/mg,437 ± 10.1 µM,0.442 µmol/min/mg,1010 µL/min/mg,,,,,,,,
B2,63.0 ± 0.6 µM,,,,,,,0.0927 µmol/min/mg,1470 µL/min/mg,80.8 ± 3.3 µM,0.0986 µmol/min/mg,1220 µL/min/mg,301 ± 89.0 µM,0.188 µmol/min/mg,620 µL/min/mg
